Data on 4 molecules can be found in paper PMC3795039.

One assay addresses GST-NUP153C (human) (UniProt P49790). In words: pull-down; 0.47 µM GST-NUP153C pre-bound to glutathione-sepharose beads, 0.8 µM his-tagged IN, PD buffer (150 mM NaCl, 25 mM Tris-HCl pH 7.4, 5 mM MgCl2, 5 mM DTT, 0.1% NP-40), BSA 5 µg, 2 h 4°C; Coomassie and anti-his blot.
For assay [1], the target named is HIV-1 CA-NC fusion protein assembled into tube-like complexes (HIV-1). As to the kind of experiment: co-sedimentation; competition: 4 µM purified WT or mutant NUP153C added to 0.8 µM assembled CA-NC and CPSF6-HA 293T extract; read-out is CPSF6 in the pellet.
Assay [2] has as its target his-tagged HIV-1 CAN Q63A/Q67A (HIV-1 (NL4-3)). In words: pull-down; Ni-NTA beads, 20 µM his-tagged CA or CAN, 0.5 µM purified NUP153C, 25 mM Tris-HCl pH 8.0, 150 mM NaCl, 0.1% NP-40, 1 h room temperature; Coomassie or SYPRO Ruby stain.
Assay [3] deals with full length his-tagged wild-type HIV-1 CA (HIV-1 (NL4-3)). Described as above.
For assay [4], the target named is HIV-1 CA-NC fusion protein assembled into tube-like complexes (HIV-1). As to the kind of experiment: co-sedimentation; purified tag-free NUP153C or GST incubated with assembled HIV-1 CA-NC complexes, pelleted through a sucrose cushion; Coomassie stain.
Assay [5] has as its target T1, his-tagged HIV-1 CA N-terminal domain (CAN) (HIV-1 (NL4-3)), P12493. In words: pull-down; saturation curves: 3 µl Ni-NTA beads, 0.5 µM purified WT or mutant NUP153C, HIV-1 CAN from 2 µM to 200 µM in half-log steps, 150 mM NaCl, 25 mM Tris-HCl pH 8.0, 0.1% NP-40; percent bound by SYPRO Ruby; one-site saturation fit, Kd at half-maximal binding. Conditions: remark: other sources report otherwise.

Assay [6] deals with T1, his-tagged HIV-1 CA N-terminal domain …. As to the kind of experiment: pull-down; Ni-NTA beads, 20 µM his-tagged CA or CAN, 0.5 µM purified NUP153C, 25 mM Tris-HCl pH 8.0, 150 mM NaCl, 0.1% NP-40, 1 h room temperature; Coomassie or SYPRO Ruby stain. Conditions: remark: other sources report otherwise.

For the molecule his-tagged FIV integrase (IN) (enzyme), the percent of input pulled down with GST-NUP153C (human) worked out at 5.55%.
Still for that read-out and setting: the value for “his-tagged HIV-1 integrase (IN) (enzyme)” was 0.85%.
For the molecule “recombinant tag-free NUP153C (residues 896–1475) (from UniProt P49790-1 896-1475) (domain or fragment)”, the fold decrease of CPSF6 binding to CA-NC with 4 µM NUP153C in assay [1] turned out to be 7 fold. The fold decrease of binding against WT CAN in assay [2] was 1.3 fold. In assay [3], this molecule came in with a percent of input pulled down of 30%. The molecule also showed a percent of input recovered in the pellet in assay [4] of 40%.

B1: recombinant tag-free NUP153C (residues 896–1475), P49790-1 896-1475 (domain or fragment)
chain: NSAASSSFKFGVSSSSSGPSQTLTSTGNFKFGDQGGFKIGVSSDSGSINPMSEGFKFSKPIGDFKFGVSSESKPEEVKKDSKNDNFKFGLSSGLSNPVSLTPFQFGVSNLGQEEKKEELPKSSSAGFSFGTGVINSTPAPANTIVTSENKSSFNLGTIETKSASVAPFTCKTSEAKKEEMPATKGGFSFGNVEPASLPSASVFVLGRTEEKQQEPVTSTSLVFGKKADNEEPKCQPVFSFGNSEQTKDENSSKSTFSFSMTKPSEKESEQPAKATFAFGAQTSTTADQGAAKPVFSFLNNSSSSSSTPATSAGGGIFGSSTSSSNPPVATFVFGQSSNPVSSSAFGNTAESSTSQSLLFSQDSKLATTSSTGTAVTPFVFGPGASSNNTTTSGFGFGATTTSSSAGSSFVFGTGPSAPSASPAFGANQTPTFGQSQGASQPNPPGFGSISSSTALFPTGSQPAPPTFGTVSSSSQPPVFGQQPSQSAFGSGTTPNSSSAFQFGSSTTNFNFTNNSPSGVFTFGANSSTPAASAQPSGSGGFPFNQSPAAFTVGSNGKNVFSSSGTSFSGRKIKTAVRRRK
Usually Kd stands for the free concentration of one partner at which half of the binding sites on the other are occupied at equilibrium, for simple one-to-one binding. Higher therefore signals a looser complex. As to B1, in assay [5], the Kd was determined as 28.3 µM. The molecule also yielded a percent of input pulled down in assay [6] of 30%.
